{"source": "paper PMC2996326", "about": "“LaeA Control of Velvet Family Regulatory Proteins for Light-Dependent Development and Fungal Cell-Type Specificity” (PLoS Genetics, 2010)", "target": "the molecule itself", "assay": "not stated; VelB heterologously expressed in Escherichia coli; data not shown"}
{"protein": "VelB expressed in Escherichia coli (natural protein, Aspergillus nidulans, UniProt C8VTS4 1-369, looked up, VelB of Aspergillus nidulans, heterologously expressed; construct not described; neither the construct, its tags nor its purification are described; source: heterologous expression in Escherichia coli) MYAVEDRAHSGHHPPPLSMDRIPPPSTMYPSSAGPSAMVSPAGQPEPESLSTVHDGRIWSLQVVQQPIRARMCGFGDKDRRPITPPPCIRLIVKDAQTQKEVDINSLDSSFYVVMADLWNADGTHEVNLVKHSATSPSISTAMSSSYPPPPHPTSSDYPASYQTNPYGQPVGQPVGQPVGYAGVGNYYGGSTQLQYQNAYPNPQAQYYQPMYGGMAQPQMPAAQPVTPGPGGMFTRNLIGCLSASAYRLYDTEDKIGVWFVLQDLSVRTEGIFRLKFSFVNVGKSVSDLPQSDIAEVINKGTAPILASTFSEPFQVFSAKKFPGVIESTPLSKVFANQGIKIPIRKDGVKGQGSRGRHSDEDDGLDNEY", "values": [{"measurement": "stoichiometry N", "value": 2}]}
